{"source": "patent US20220033512A1", "about": "(University of California, published 2022)", "binders": {"B1": {"name": "12-J-4 ENPP1 monoclonal antibody (antibody, V domains shown)", "VH": "EVMLVESGGGLVKPGGSLKLSCVASGFTFSSYTMSWVRQTPEKRLEWVATISGGGGNTYYPDSVKGRFTISRDNAKNTLYLQMSSLRSEDTALYYCARRHYGSSPYAMDYWGQGTSVTVSS", "VL": "DIQMTQTTSSLSASLGDRVTISCRASQDISNYLNWYQQKPDGTVKLLIYHKTRLHSGVPSRFSGSGSGTDYSLTISNLEQEDIATYFCQQGNMLPWTFGGGTKLEIK", "notes": "The antibody is a recombinant IgG1kappa made in a CHO cell line, from a hybridoma raised against human recombinant ENPP1; Heavy chain about 48 kD, light chain about 24 kD; also called ENPP1 mAb; ENPP1mAb"}}, "key": {"[1]": {"target": "T1, human ENPP1, full length, over-expressed on HEK cells (human, UniProt P22413 1-925)", "T1 construct": "whole, on cells", "T1 sequence (looked up)": "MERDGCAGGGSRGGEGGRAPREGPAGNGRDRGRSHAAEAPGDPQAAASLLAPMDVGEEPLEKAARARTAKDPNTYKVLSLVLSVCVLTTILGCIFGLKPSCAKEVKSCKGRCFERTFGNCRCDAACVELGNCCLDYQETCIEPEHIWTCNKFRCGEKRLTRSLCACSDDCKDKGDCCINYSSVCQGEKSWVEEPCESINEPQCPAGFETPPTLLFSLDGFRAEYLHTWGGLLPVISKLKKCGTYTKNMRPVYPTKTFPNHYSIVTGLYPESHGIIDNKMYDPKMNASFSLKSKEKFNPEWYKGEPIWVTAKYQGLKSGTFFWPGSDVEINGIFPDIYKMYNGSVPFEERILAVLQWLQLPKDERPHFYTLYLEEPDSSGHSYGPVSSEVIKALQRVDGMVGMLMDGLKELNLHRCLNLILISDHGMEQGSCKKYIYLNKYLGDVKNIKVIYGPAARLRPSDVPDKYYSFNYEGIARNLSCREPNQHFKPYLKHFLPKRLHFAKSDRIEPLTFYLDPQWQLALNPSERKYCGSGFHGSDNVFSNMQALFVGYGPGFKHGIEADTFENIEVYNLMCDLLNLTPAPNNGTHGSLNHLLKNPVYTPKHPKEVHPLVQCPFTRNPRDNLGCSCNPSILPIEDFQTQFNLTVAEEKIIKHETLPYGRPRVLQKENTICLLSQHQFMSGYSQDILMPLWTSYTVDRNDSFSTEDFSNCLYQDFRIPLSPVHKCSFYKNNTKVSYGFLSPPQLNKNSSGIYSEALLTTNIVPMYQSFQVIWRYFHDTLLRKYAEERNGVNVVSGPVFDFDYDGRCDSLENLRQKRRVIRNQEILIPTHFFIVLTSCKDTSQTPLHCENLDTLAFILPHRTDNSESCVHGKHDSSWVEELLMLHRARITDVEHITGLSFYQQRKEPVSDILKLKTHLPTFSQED", "assay": "flow cytometry (mean fluorescence intensity) on HEK cells over-expressing full length human ENPP1"}, "[2]": {"target": "T1, human ENPP1, full length, …", "assay": "flow cytometry (mean fluorescence intensity) on HEK cells over-expressing full length ENPP1, varying mAb concentrations, fitted in Graph Pad Prism"}}, "data": [{"binder": "B1", "values": [{"measurement": "EC50 (read off the curve)", "setting": "[1]", "value": "~4", "unit": "nM"}, {"measurement": "Kd", "setting": "[2]", "value": 3.52, "unit": "nM"}]}]}
